The RNAGym collection of RNA variant scans (doi:10.1073/pnas.2313332121)

B1: TPR t1 (parent)
chain: GACCAAUCUGCCCUCAGAGCUCGAGAACAUCUUCGGAUGCAGAGGAGGCAGGCUUCGGUGGCGCGAUAGCGCCAACGUCCUCAACCUCCAAUGCAUCCCACCACAUGAUGAUGCCUGAAGAGCCUUGGUUUUUUG

Variants of: B1
Assay: polymerase ribozyme fitness, log enrichment relative to wild type (log ratio); higher = more active; in vitro selection for triplet polymerase activity
In short: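 Mutant libraries were PCR-built and transcribed for each subunit of a heterodimeric triplet polymerase ribozyme and selected for one round in triplicate at −7 °C, frozen, before gel excision of extended constructs and streptavidin-bead capture. Input and output libraries were Illumina-sequenced, keeping genotypes with ≥10 input reads and ≥1 read per output. Fitness is a logarithmic ratio of genotype to wild-type enrichment, in base 2, using inverse-variance-weighted replicate averages.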

Point of comparison: G44U A111U, “polymerase ribozyme fitness (log ratio)” value -4.9. Against it:
- U38G C56U C72A U131C — higher, -2.05
- A37G C88G — higher, -2.83
- C34G U54G G69U — lower, -5.25
- C56A U81A G117A — higher, -1.94
- A29C A50U C104A C114G — lower, -8.27
- G71A U81G A83U C124A — lower, -7.19
- A5C C11G G44A C56A U112A — higher, -0.571
- G42U G93U A118G — higher, -2.35
- C49G G51C A119U U133C — higher, -3.18
- A43U C62A — higher, -2.39
- A43C G113A — higher, -2.91
- C11U A37G U96G — higher, -2.69
- G17C A121G U133A — higher, -1.73
- C15U G71A C79U — higher, -1.53
- C53G G71U — higher, -0.129
- C56U G107A — higher, -4.63
- A29G A46G — higher, -1.09
- U9G G19A A37U C70U U78A — within 0.2 log units, -4.73
- G19A A43U C49U C124U — higher, -2.19
- A37G G71U — higher, -1.09
- C72A A100C G120A — higher, -0.61
- G58C C102A G120A — higher, -2.34
- C72G A90G G110U G135C — higher, -2
- C11G A121C — higher, 1.5
- U112G G117A — higher, -2.9
- G69U C70U C80U G113C A119G — higher, -3.06
- C4G U129C — higher, -1.99
- G113A U130C — higher, -1.16
- C12A C88U U109A C114A U133C — lower, -6.51
- C49U A90G C124A — higher, 1.48
- C85U A95U C115A G120C — higher, -0.474
- C3U G69U A105G G117C — within 0.2 log units, -4.98
- U33G G61A A121U G127U U133A — higher, -3.67
- A5U C13A C28U C49U C56U G120C G135U — lower, -5.49
- C73A A74G — higher, -0.555
- C49U G65C C104G C123A — lower, -7.83
- G69U A111U — higher, -1.16
- A37U A66C A75U G120C — higher, -1.07
- U9A C31U A111C G135U — higher, -4.56
- C62U C124G — higher, 1.52
- G61U A66U U112A — higher, 0.256
- C62G C99U A121G — higher, -4.31
- G61A C89A A90U A91G — higher, -1.77
- C20A C53A U59A — higher, -2.85
- G36U C56U C97A — higher, -0.495
- C11U C15G G36C — lower, -7.38
- U14G G61U — higher, -1.11
- A2U C40A — higher, -3.29
- G36U G60C — higher, -1.25
- A6G C56G G69A C79A — within 0.2 log units, -5.03
- C11G G42C G69U A111C — higher, -0.0543
- C73A C123U — higher, 1.47
- G45U C124A — higher, 0.716
- U38A C101G G120C — higher, -2.43
- C8U U59G U96A G110U — higher, -2.31
- A6U C56G — higher, -0.948
- C4A C70G C79A C114U — lower, -5.9
- C15A U92A U132A — within 0.2 log units, -4.82
- G60A C88U A118G — higher, -1.01
- U9C G113A — higher, -0.364
- C15U C72A C73A U81A A84G — within 0.2 log units, -4.77
- A90U G113U — higher, -2.89
- C11U A29G C53U — higher, -2.33
- U9C C53G A105U — higher, -1.72
- G120U U129G — higher, -1.17
- G61A C97G C124U — higher, -2.04
- A90C C101A — higher, -2.32
- C49A C94U U116A — higher, -3.07
- G71U G122A — higher, -0.705
- U9C C28G G52U — higher, -3.99
- G44A C49U U78G C101A — higher, -3.78
- C28U C56G C73A — higher, -4.7
- A26G — higher, -1.67
- C12G A43U — higher, -0.979
- G48C G61U — higher, 0.754
- G60A C86U — higher, -0.149
- C72U G93U — higher, -1.56
- G48A U130G — higher, -1.37
- C97A C123G — higher, -3.19
- G71U C79U — higher, -0.201
- G42A C56G C64U G122A — higher, -3.76
- U7A C49U G52U G61A G120A — higher, 0.469
- G52U C72U C80U C98U — higher, -3.28
- C22G C70U — higher, -3.87
- U78A G120A — higher, 0.814
- U33G G93A A100U C114U — lower, -7.04
- G57C G61U — higher, -0.733
- G35U A121G — higher, -3.56
- A6G U112G C114G A119G U131C — lower, -5.15
- C11U A26U A46C C49G C72U C86G — lower, -6.59
- G60U U116C U132A — higher, -0.473
- G10U U38G U78A G128A — higher, -3.77
- A37U C101A G120A — higher, -0.798
- A5U U112A A118U U125C — higher, 0.369
- C22G C72U U96C C114G C123U G127U — lower, -7.69
- C8U G39U A66G G113C — higher, -4.22
- C12A A75U A111C — higher, 0.286
- C82U G113C — higher, -2.19
- C28G A118G — higher, -2.17
- G44A A46U G93U C104U — higher, -2.25
- G44C G71C A84C — higher, -2.61
- U14G A46U A74G C101A — higher, -3.18
- G57A A66C — higher, -2.98
- C12U C15U A46C G47A G69C A100G C101U G113U C123G — lower, -7.1
- G42U C70U U126G — lower, -5.19
- C8U G117U — higher, -1.38
- C13A A100U U131G — higher, -2.21
- C22U G60C C104A — lower, -5.43
- C3U G61A U78G U112G — higher, -0.547
- A43U G71A A91G — higher, -3.35
- A29G U32C U106A — higher, -2.24
- A6U C28G G58A A100U — higher, -3.49
- C15U G127A U129A — higher, -4.11
- U78C C85G U129C — higher, -2.13
- C3U G45U G60U A91G C123U — higher, -2.3
- U7C C8U C20A G71A G93U — lower, -5.59
- C11U G128A — higher, -2.45
- C70A U130A — higher, -2.04
- G61A U92G G113U — higher, -4.27
- G57U U87A A90C C101U C114U U125A — higher, -4.29
- G44U C82U U106G G120A — higher, -0.344
- G42U C73A — higher, -1.55
- C20G C40A G58C A121U — higher, -4.66
- C62A C79A G117C — lower, -6
- G25A A121U — higher, -2.9
- A83C C86G — higher, -1.46
- A46U G61U — higher, -0.648
- A26U U81C — higher, -3.05
- C12U C72U G128U — higher, -1.55
- A26U A119G — higher, -2.12
- G71U C73G A90U C114U — lower, -7.06
- C3U C40G C115A — higher, -1.95
- U7C C20A G39C G61A — higher, -3.85
- G19U A41G G63U — within 0.2 log units, -4.85
- C8U C88A A90U — higher, -0.855
- C70A C102U — higher, -4.59
- C79U C82A U87A G110C — higher, -4.6
- A24G C72G C94A — higher, -2.87
- C86U U130C — higher, 0.0697
- G48A G110A — higher, -1.6
- G48C U67C G71A A95G U106A — lower, -8.09
- C13G G52A C72G C85A — higher, -4.46
- A16G A46C G120C — higher, -0.418
- C12U A41C G60C G128C — higher, -3.6
- A27U C73U A75G — higher, -3.03
- C8A G47U U78A A83C C98G U112A — lower, -7.02
- G17U A37U — higher, -2.44
- C40U A121U — higher, 1.68
- C31U C123G G127A — higher, -4.45
- G63A U81A — higher, -2.01
- U14C U54G — higher, -1.76
- C4U G44A C73U A75U C94A — higher, -2.78
- G71C G127C — higher, -2.16
- C11U U55A C80A C86G C124G — higher, -4.52
- C12U C15U C49A C101U U133G — higher, -1.18
- C12G C53U G93C — higher, -0.482
- G52A A84U C101U U106G U132A — higher, -1.69
- G71A C94U — higher, -1.55
- C13A G71A A90G — higher, -2.51
- C11G C53G C114U G127C — higher, -1.98
- C8U C56U U96C — higher, 0.0221
- C12G C34U — higher, -3.31
- A74U A83U A84C G120U G122A U125A — higher, -1.84
- A90C U112A — higher, -1.21
- G10C U92C G113U — higher, -4.69
- A18G G19U C73A C79U — higher, -1.75
